Patent US20060045883A1 (published 2006)

These binders were tested against T1, HLA-A2.1 (HLA-A*0201) on the surface of T2 cells (human) (assay: T2 stabilisation assay, flow cytometry).
T1 construct: also called HLA-A2 on T2

**Q.** Does KLNDILLIQL (also called PR71) [PR7I peptide of proteinase 3 (amino acid 115-124, Ile 119 variant)] bind?
**A.** Result: binds

**Q.** Does KLNDVLLIQL [PR7V peptide of proteinase 3 (amino acid 115-124, Val 119 variant)] bind?
**A.** Result: binds

Each binder was assayed against T2, HLA-A2.1 heavy chain with I125-labeled beta2-microglobulin (heterotrimer dissociation assay) (human, I^125-labeled) (assay: I125-beta2-microglobulin dissociation assay).
T2 construct: T1/2 is the half-time of dissociation of labeled beta2-microglobulin from the heavy chain/peptide/beta2-microglobulin complex; also called HLA-A2.1 heavy chain / beta2-microglobulin complex

**Q.** Does LLSYFKQPV [MY3 peptide of myeloperoxidase] bind?
**A.** Result: binds

**Q.** Does SLWRRPFNV [MY1 peptide of myeloperoxidase] bind?
**A.** Result: binds

**Q.** Does RLFEQVMRI [MY4 peptide of myeloperoxidase] bind?
**A.** Result: binds

**Q.** Does LIQPFMFRL [MY5 peptide of myeloperoxidase] bind?
**A.** Result: binds

**Q.** Does KLLLALAGL [MY2 peptide of myeloperoxidase] bind?
**A.** Result: binds

What follows are binders tested against T1, HLA-A2.1 (HLA-A*0201) on the surface of … (assay: T2 stabilisation assay, indirect flow cytometry with BB7.2 (FIG. 34)).

**Q.** Does LLSYFKQPV [MY3 peptide of myeloperoxidase] bind?
**A.** Result: binds

**Q.** Does SLWRRPFNV [MY1 peptide of myeloperoxidase] bind?
**A.** Result: binds

**Q.** Does RLFEQVMRI [MY4 peptide of myeloperoxidase] bind?
**A.** Result: binds

**Q.** Does LIQPFMFRL [MY5 peptide of myeloperoxidase] bind?
**A.** Result: binds

**Q.** Does KLLLALAGL [MY2 peptide of myeloperoxidase] bind?
**A.** Result: binds

Each binder was assayed against T2, HLA-A2.1 heavy chain with I125-labeled … (assay: dissociation of I125-labeled beta2-microglobulin from the heavy chain/peptide/beta2-microglobulin complex, HPLC gel filtration).

**Q.** For RLFPDFFTRV [PR2 peptide of proteinase 3], which T1/2 is on record?
**A.** Its T1/2 is 2.33 h.

**Q.** Which T1/2 does the source give for VLQELNVTV (Synthetic peptide, minimum 95% purity) [PR1 (aa 169-177) peptide of proteinase 3] here?
**A.** Its T1/2 is 24.3 h.
